# Data from the supplement of paper PMC9732359.
# ± gives the uncertainty stated by the source.
# Assay: protein stability index of a GFP-peptide fusion (yeast GPS) (PSI 1-4); higher = more stable; sorted into four equal gates, so the index is relative within each strain
# Method in brief: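 Tiled yeast protein peptides of 17 residues were each joined downstream of GFP, on plasmids that also express Cherry. The pooled library was maintained in yeast, and mid-log cultures in leucine-free medium were sorted into four equal gates on the GFP/Cherry ratio. Plasmids from every gate were amplified by PCR and sequenced on Illumina, with barcodes linking reads to strains. The protein stability index of a peptide is its gate-number-weighted read frequency summed over the gates.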
Sequence,protein stability index (doa10∆),protein stability index (pdr5∆),protein stability index (san1∆),protein stability index (ubr1∆)
DMGMQQELCYPDENHDN [BRN1],3.22 ± 0.073,3.28 ± 0.06,2.99 ± 0.059,3.33 ± 0.055
SSDGAYTEQFQHYKNNS [SSN2],2.99 ± 0.068,3.03 ± 0.056,3.02 ± 0.066,3.06 ± 0.05
WRFLQILRNGIDYLQRN [POP1],3.05 ± 0.059,2.82 ± 0.054,2.97 ± 0.052,2.72 ± 0.048
KITTSTEDQKVTTNINW [SRP68],3.13 ± 0.078,3.13 ± 0.072,3.21 ± 0.068,3.11 ± 0.054
IDDFTTRLWGSVYYHKG [SNU114],3.06 ± 0.24,3.41 ± 0.17,,3.31 ± 0.13
ERQIFLEACIVRIMKAK [CDC53],1.64 ± 0.051,1.69 ± 0.048,1.48 ± 0.076,1.61 ± 0.037
QLDKKNELQKFQALWQL [SMC1],,,2.58 ± 0.1,
SCEVEEIGLLGGRYVYP [SNU114],3.27 ± 0.092,3.04 ± 0.066,2.85 ± 0.065,2.8 ± 0.06
PQNGNINNNINIPQQQQ [GAL11],3.32 ± 0.095,3.02 ± 0.12,3.21 ± 0.082,2.97 ± 0.077
TLKYICAECSSKLSLSR [RPC10],2.46 ± 0.063,2.51 ± 0.069,2.7 ± 0.057,2.65 ± 0.056
NAQLSCITKQDGFKIYD [PUP2],3.04 ± 0.16,3.17 ± 0.12,3.12 ± 0.098,3.07 ± 0.1
ALSKFLTHPKYLNSRII [YML103C/NUP188],1.16 ± 0.057,1.32 ± 0.077,1.38 ± 0.093,1.58 ± 0.066
ILNELQPNARALERYDE [SMC1],3.3 ± 0.22,3.61 ± 0.11,3.27 ± 0.078,3.49 ± 0.086
AIIDKNTGLTFKKNLQV [PRE4],3.22 ± 0.081,2.79 ± 0.076,2.79 ± 0.11,3.35 ± 0.082
NDIPLGSGQPDNDTVVT [SRB8],3.3 ± 0.12,3.18 ± 0.16,2.51 ± 0.14,3.12 ± 0.28
RMSIKLLRLASKSTSMK [POP1],2.49 ± 0.043,2.6 ± 0.047,2.48 ± 0.053,2.56 ± 0.04
LQYGWKVERHIMDNDPV [RPO21],1.19 ± 0.069,1.21 ± 0.12,1.37 ± 0.19,1.24 ± 0.098
LKLEKLNTNRTFAQEKL [SMC3],2.84 ± 0.07,3.08 ± 0.069,2.83 ± 0.098,2.93 ± 0.057
NVIKTGIRIISLTYKKI [RPN3],1.83 ± 0.1,2.25 ± 0.081,1.99 ± 0.12,2.2 ± 0.042
EVTKLLKNEGIDLDHKR [SMC4],3.08 ± 0.12,3.2 ± 0.17,,3.55 ± 0.1
YAKSEFDNVASVFMPLI [ECM29],3.04 ± 0.054,2.8 ± 0.049,3.08 ± 0.039,3.09 ± 0.046
RLTVSARDAPTKISTLA [QCR2],3.2 ± 0.096,3.17 ± 0.069,3.04 ± 0.066,3.19 ± 0.055
YEHNGRTLEAITATLVG [CSL4],2.03 ± 0.051,2.05 ± 0.051,1.83 ± 0.066,2.04 ± 0.038
AIKYGYEDSGSTYKHDR [SRB4],3.22 ± 0.17,,3.43 ± 0.14,3.15 ± 0.14
DRSLADDYDYVMYGTAY [RPB8],2.56 ± 0.059,2.98 ± 0.064,3.02 ± 0.063,2.73 ± 0.074
LTITKAAGANVDNVWAD [RPP1B],2.63 ± 0.089,2.26 ± 0.063,2.78 ± 0.15,2.85 ± 0.059

Sequence,protein stability index (doa10∆),protein stability index (pdr5∆),protein stability index (san1∆),protein stability index (ubr1∆)
MIDAVFEQDSHLRYQPD [SNF6],3.09 ± 0.076,3.19 ± 0.065,3.15 ± 0.041,3.19 ± 0.054
SSRFKHRQEIFKDSPMD [GAL11],2.71 ± 0.078,3.11 ± 0.066,3.03 ± 0.059,3.01 ± 0.076
TSLPDWCQEAFPSSETT [BRR2],2.93 ± 0.075,3.08 ± 0.099,3.25 ± 0.072,3.01 ± 0.15
ELVIRLEKDAADCQAEL [YIL149C/MLP2],2.93 ± 0.25,3.05 ± 0.18,3.18 ± 0.22,3.07 ± 0.22
FSFGQNNNNTNTQPSAS [YGR119C/NUP57],2.87 ± 0.071,2.61 ± 0.069,2.82 ± 0.06,2.78 ± 0.043
VLFAAYKVEHPFFARFK [RPB11],2.71 ± 0.089,1.87 ± 0.05,2.18 ± 0.067,2.27 ± 0.1
EKFPNDVKLLNPIDIKR [RPP1],2.91 ± 0.062,2.97 ± 0.041,3.14 ± 0.038,3.01 ± 0.039
FRETTHSKRELDSGDDQ [BRR2],3.31 ± 0.12,3.02 ± 0.12,2.51 ± 0.088,2.78 ± 0.16
FVIPILIKMSRSPPRPP [PRP28],2.04 ± 0.069,1.93 ± 0.065,2.01 ± 0.088,2.14 ± 0.073
KHIKNLEDDSLLSYPIK [RPN12],2.9 ± 0.047,2.44 ± 0.033,2.56 ± 0.045,2.617 ± 0.026
FLIKASVREINLYMLVT [SSN8],1.55 ± 0.063,1.43 ± 0.047,1.89 ± 0.091,1.44 ± 0.052
PNYLHLVSSYLNKSDLL [YML103C/NUP188],1.96 ± 0.038,2.27 ± 0.034,2.21 ± 0.04,1.8 ± 0.031
SQLGGNKTVNEAAKPSL [YJL041W/NSP1],3.36 ± 0.11,3.09 ± 0.079,2.32 ± 0.17,3.26 ± 0.07
RAKPVTNSSILLGKILP [RRP6],2.2 ± 0.074,2.14 ± 0.077,2.27 ± 0.12,2.39 ± 0.13
SKNPLSLTEATKTNVDN [YLR335W/NUP2],3.01 ± 0.065,3.01 ± 0.069,3.28 ± 0.11,3.31 ± 0.092
QLPKQLWRNFCRKLSFS [ITC1],2.67 ± 0.059,2.66 ± 0.05,2.6 ± 0.039,2.66 ± 0.034
DELVLNFENDNENNSNG [REC8],2.88 ± 0.19,2.62 ± 0.28,2.64 ± 0.15,2.79 ± 0.16
DQCVGQVGLNFELSFTG [YMR129W/POM152],2.94 ± 0.061,3.01 ± 0.077,3.06 ± 0.046,2.97 ± 0.043
ILNINNSTSKNTLLQQQ [SWI1],2.37 ± 0.052,2.87 ± 0.08,2 ± 0.069,2.4 ± 0.047
GISNGSESKDSDKPSLP [YLR335W/NUP2],3.29 ± 0.13,3.19 ± 0.12,,2.79 ± 0.13
KADTDTLLYEQIIQRDK [SNF5],3.23 ± 0.11,3.37 ± 0.11,3.21 ± 0.062,3.29 ± 0.064
KVIPYSTFRLNLSVTSP [RPO21],1.67 ± 0.065,1.53 ± 0.075,1.14 ± 0.24,1.97 ± 0.13
VNLENPIPIAVLDSYTP [FAS1],1.42 ± 0.046,1.7 ± 0.036,1.69 ± 0.071,1.42 ± 0.027
KEQYNRYRDLMISCLMN [MTR3],2.07 ± 0.085,2.41 ± 0.053,2.4 ± 0.07,2.46 ± 0.086
MTMASKSLEVVNADTVG [NSL1],2.96 ± 0.078,2.82 ± 0.075,2.7 ± 0.068,2.38 ± 0.053
